From US20150072922A1, “RNASE 7 ANTIMICROBIAL PEPTIDES” (THE RESEARCH INSTITUTE AT NATIONWIDE CHILDREN'S HOSPITAL, priority 2012, published 2015)
Entries after “also recorded” stand apart in the source; their conditions may differ. Marks after values point to notes of the source that are not given here. No end group written: not given here. *: point of attachment. His tag = six-residue histidine tag at the N-terminus, N[C@@H](Cc1c[nH]cn1)C(=O)N[C@@H](Cc1c[nH]cn1)C(=O)N[C@@H](Cc1c[nH]cn1)C(=O)N[C@@H](Cc1c[nH]cn1)C(=O)N[C@@H](Cc1c[nH]cn1)C(=O)N[C@@H](Cc1c[nH]cn1)C(=O)*

Tests used:
[1] = system: Staphylococcus saprophyticus; test: SYTOX Green bacterial cell death / membrane permeabilization assay; type: cell-based; settings: 3 hours, FIG. 2, compared to full-length
Experimental: (§1) Assays of the permeabilization of bacterial membrane were performed with SYTOX green nucleic acid stain (Invitrogen™). The overnight cultures of bacteria were centrifuged at 5000 rpm for 5 min, the pellets were then washed with water and resuspended in water with an OD=0.5. 90 μl of each bacteria were then incubated with 10 μl of peptides with different concentrations for 3 hours at 37° C. in a 96-well plate. 100 μl of 2 μM SYTOX Green (Invitrogen™) were then added to each well and incubated in dark for 15 min. SYTOX green penetrates cells with compromised membranes not the membranes of live cells. The increase of fluorescence was measured using […] filters for excitation and emission wavelengths, respectively. Bacteria alone and bacteria treated with 70% ethanol were used as controls and the fluorescence from each was recorded as Fmin and Fmax. The percentage of cell death at each concentration for each fragment was calculated as below: death %=(F−Fmin)/(Finax−Fmin)*100%
(§2) To confirm the accuracy of our MIC/MBC data, cell death assays using SYTOX Green (Invitrogen), which selectivity labels nucleic acids of cells with compromised membranes of dead/dying cells were performed. Overnight cultures of bacteria were centrifuged at 5000 rpm for 5 minutes. Pellets were then washed with PBS (pH 7.4) and resuspended in PBS to an OD600 of 0.5 for Escherichia coli (UTI89) and OD600 of 0.8 for Staphylococcus saprophyticus. Per manufacturerer's instructions, 90 μl of each bacteria strain were incubated with 100 μl of 2 uM SYTOX Green for 15 minutes. Ten microliters of peptides at various concentrations were added for 3 hours at 37° C. in a 96-well plate. Compromised bacterial membranes of dead/dying cells will be labeled while lives cells are not labeled as noted by Invitrogen. Fluorescence was measured using 485 and 520-nm filters for excitation and emission wavelengths, respectively. Untreated bacteria were used as a 100% live control, and fluorescence was noted as Fmin. To elicit complete killing, bacteria were treated with 70% ethanol for 1 hour. This experimental group's fluorescence was noted as Fmax. The percentage of cell death at each concentration for each fragment was calculated as (Ffragment−Fmin)/(Fmax−Fmin)×100%.

[2] = system: Escherichia coli (UTI89); test: as above; type: cell-based; settings: 3 hours, FIG. 1, compared to full-length
Experimental: as §1, §2

[3] = system: Staphylococcus saprophyticus (ATCC 15305); test: Antimicrobial kill (microdilution) assay, MIC/MBC by CFU count; type: cell-based; settings: for MIC/MBC fold higher than full-length protein, S. saprophyticus: compared to full-length RNase 7; for S. saprophyticus MIC: lowest concentration that inhibits the growth of 90% of the inoculation; for S. saprophyticus MIC / S. saprophyticus MBC: 3 hours, 0.1×PBS; for S. saprophyticus MBC: minimum bactericidal concentration
Experimental: (§3) The antimicrobial activity of RNase 7 and its fragments was estimated using a microdilution assay. Briefly, test bacteria (10^5) were incubated with several concentrations of RNase 7 and each fragment in 50 μl 0.1×PBS buffer for 3 hours in a 37° C. incubator. Each reaction was plated on the appropriate medium and grew overnight at 37° C. The antimicrobial activity was determined by the number of colony-forming units (CFUs) the following day. The minimum inhibition concentration (MIC) is defined as the lowest concentration that inhibits the growth of 90% of the inoculation and the minimum bactericidal concentration (MB C) is defined as the lowest concentration at which less than 99.99% of the initial inoculum is viable.
(§4) Antimicrobial activities of the recombinant peptides were estimated with a microdilution assay. Briefly, the test bacteria (10^4 CFUs) were incubated with various concentrations of RNase 7 and each fragment in 50 ul 0.1×PBS buffer for 3 hours at 37° C. After incubation on Agar plates overnight at 37° C., the number of colony-forming units (CFUs) at each peptide concentration was determined. Using untreated bacterial aliquots as baseline, the minimum inhibition concentration (MIC) was defined as the lowest concentration that inhibits the growth of 90% of the inoculation, and the minimum bactericidal concentration (MBC) was defined as the lowest concentration at which less than 99.99% of the initial inoculum is viable.

[4] = system: Escherichia coli (UTI89); test: as above; type: cell-based; settings: for MIC/MBC fold higher than full-length protein, E. coli: compared to full-length RNase 7; for E. coli MIC: lowest concentration that inhibits the growth of 90% of the inoculation; for E. coli MIC / E. coli MBC: 3 hours, 0.1×PBS; for E. coli MBC: minimum bactericidal concentration; for antimicrobial activity against E. coli (in words): MIC/MBC based, mostly compared to full-length RNase 7
Experimental: as §3, §4

[5] = system: Proteus mirabilis (ATCC 7002); test: as above; type: cell-based; settings: 3 hours, 0.1×PBS; for P. mirabilis MIC: lowest concentration that inhibits the growth of 90% of the inoculation; for P. mirabilis MBC: minimum bactericidal concentration
Experimental: Uropathogenic Escherichia coli (UTI89) was grown in Luria broth (LB) medium and plated on LB-agar. Uropathogenic Staphylococcus saprophyticus (ATCC 15305) was grown in LB and plated on Trypticase Soy Agar with 5% sheep blood (Fisher Scientific, Pittsburgh, Pa., USA). Uropathogenic Proteus mirabilis (ATCC 7002) was grown in LB and plated on MacConkey II Agar (Fisher Scientific, Pittsburgh, Pa., USA). These organisms were chosen as the primary organisms that account for a majority of Gram-negative and Gram-positive urinary tract infections (UTI). Anti-RNase 7 antibody was generated in rabbit with recombinant human RNase 7 (Biomatik, Wilmington, Del., USA)
as §4

[6] = system: uropathogenic E. coli; test: RNase7 antibacterial activity, MIC on strains isolated from positive urine cultures; type: cell-based, Escherichia coli; settings: uropathogenic E. coli isolated from urine cultures (N=3)
Excerpt: Laboratory bacterial strains from the American Type Culture Collection (ATCC, Manassas, Va.) and strains isolated from positive urine cultures were obtained from the Microbiology Laboratory at Nationwide Children's Hospital.

## F:46-97: recombinant middle RNase 7 fragment, amino acids 46 to 97, beta sheets 2-4, N-terminal His tag ({His tag}-EPFSSVAATCQTPKIACKNGDKNCHQSHGPVSLTMCKLTSGKYPNCRYKEKR; ends and bridges not checked)
[1]
  membrane permeabilization and death, S. saprophyticus (in words): no activity compared to full length protein; also recorded: negligible activity against S. saprophyticus
[2]
  membrane permeabilization and death, E. coli (in words): enhanced permeabilization and death compared to the full-length protein; also recorded: potent membrane penetrating activity
[3]
  MIC/MBC fold higher than full-length protein, S. saprophyticus: two-fold higher
  S. saprophyticus MIC: 0.44 µM
  S. saprophyticus MBC: 1.75 µM
[4]
  MIC/MBC fold higher than full-length protein, E. coli: two-fold higher
  E. coli MIC: 0.88 µM
  E. coli MBC: 1.75 µM
[5]
  P. mirabilis MIC: 3.5 µM
  P. mirabilis MBC: >3.5** uM

B1: F:1-71: recombinant N-terminal RNase 7 fragment, amino acids 1 to 71 (SEQ ID NO: 3), N-terminal His tag (protein, listed as Homo sapiens)
chain: KPKGMTSSQWFKIQHMQPSPQACNSAMKNINKHTKRCKDLNTFLHEPFSSVAATCQTPKIACKNGDKNCHQ
modifications: N-terminal His tag
[1]
  membrane permeabilization and death, S. saprophyticus (in words): shows permeability against S. Saprophyticus
[2]
  membrane permeabilization and death, E. coli (in words): lower permeability against E. coli
[6]
  mean inhibitory concentration (MIC): 0.63 µM
[3]; MIC/MBC based, mostly compared to full-length RNase 7
  antimicrobial activity against S. saprophyticus (in words): shows antimicrobial activity against S. saprophyticus; also recorded: same activity to S. saprophyticus as full length protein
[3]
  S. saprophyticus MIC: 0.23 µM
  S. saprophyticus MBC: >0.92* uM
[4]
  MBC against E. coli: 3.86 µM
  MIC against E. coli: 1.93 µM
  antimicrobial activity against E. coli (in words): lower activity against E. coli; also recorded: markedly reduced activity against E. coli
  MIC/MBC fold higher than full-length protein, E. coli: seven-fold higher
  E. coli MIC: 1.93** uM
  E. coli MBC: 3.86 µM
[4]; listed as 1-71
  antimicrobial activity against E. coli (in words): least activity; also recorded: significantly decreased activity
[5]
  P. mirabilis MIC: .44 µM
  P. mirabilis MBC: .88 µM

B2: F:30-97: recombinant middle RNase 7 fragment, amino acids 30 to 97, first four beta sheets, N-terminal His tag (protein)
chain: {His tag}-INKHTKRCKDLNTFLHEPFSSVAATCQTPKIACKNGDKNCHQSHGPVSLTMCKLTSGKYPNCRYKEKR
modifications: ends and bridges not checked
notes: recombinant middle RNase 7 fragment, amino acids 30 to 97, first four beta sheets, N-terminal His tag
[1]
  membrane permeabilization and death, S. saprophyticus (in words): less activity when compared with full-length RNase 7
[2]
  membrane permeabilization and death, E. coli (in words): less activity when compared with full-length RNase 7
[3]
  MIC/MBC fold higher than full-length protein, S. saprophyticus: two-fold higher
  S. saprophyticus MIC: 0.44 µM
  S. saprophyticus MBC: 1.75* uM
[4]
  MIC/MBC fold higher than full-length protein, E. coli: two-fold higher
  E. coli MIC: 0.44 µM
  E. coli MBC: 0.88 µM
[5]
  P. mirabilis MIC: >3.5** uM
  P. mirabilis MBC: >3.5** uM
